Measured values published in US20080187984A1, “Myo-inositol oxygenases” (Cargill, Incorporated, priority 2001, published 2008).

Target: T1, gulono-γ-lactone oxidase (Rattus norvegicus, UniProt P10867, I85V)
T1 construct: His tag (pET30a fusion); made in house; host or cells: E. coli Rosetta(DE3), pET30a
T1 sequence (P10867 1-440 I85V): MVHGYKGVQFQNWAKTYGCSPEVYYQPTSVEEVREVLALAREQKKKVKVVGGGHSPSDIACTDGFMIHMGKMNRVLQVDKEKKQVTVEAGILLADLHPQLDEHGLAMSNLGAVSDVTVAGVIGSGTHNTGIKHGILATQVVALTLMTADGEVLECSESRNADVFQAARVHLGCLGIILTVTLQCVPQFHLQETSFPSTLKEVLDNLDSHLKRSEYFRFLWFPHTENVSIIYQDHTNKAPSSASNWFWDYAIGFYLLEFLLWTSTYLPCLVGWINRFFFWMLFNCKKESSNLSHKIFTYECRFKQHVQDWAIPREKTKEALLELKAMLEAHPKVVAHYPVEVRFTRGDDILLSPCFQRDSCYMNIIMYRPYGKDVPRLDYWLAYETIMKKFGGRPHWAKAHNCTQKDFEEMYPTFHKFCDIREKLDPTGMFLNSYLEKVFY
Assay: GLO assay, ascorbic acid from L-gulono-γ-lactone
Format: biochemical
Conditions: His-Bind purified from E. coli; 2.5 mM L-gulono-γ-lactone
Experimental: GLO activity was assayed according to the procedure described by Nishikimi (Methods in Enzymology, 62:24-30 (1979)). The assay mixture contained, in 1 mL, 50 mM potassium phosphate buffer, pH 7.5, 2.5 mM L-gulono-γ-lactone, 1 mM EDTA, and enzyme. The reaction was initiated by the addition of either substrate or enzyme, and the mixture was incubated with shaking in air for 15 minutes at 37° C. The reaction was stopped by the addition of 0.1 mL 50% trichloroacetic acid, and the precipitated protein was removed by centrifugation. The product ascorbic acid was detected by the method described in Example 9. Briefly, 0.956 mL 2,2′-dipyridyl reagent was added to 0.15 mL of the supernatant solution, and the reaction mixture was incubated at 25° C. for 15 minutes. After 15 minutes, the sample was centrifuged to remove any precipitate, and the absorbance was read at 525 nm. The 2,2′-dipyridyl reagent contained 0.056 mL ortho-phosphoric acid (85%), 0.75 mL 0.5% 2,2′-dipyridyl (prepared in hot H2O), and 0.15 mL 1% FeCl3 (in H2O). Standards of ascorbic acid (1.0 μg to 10 μg) were run in parallel with the biological samples for a standard curve. One unit is defined as the quantity that catalyzes the formation of 1 nmol of L-ascorbic acid in 1 minute under the conditions described above. Specific activity is expressed as units per mg of protein ([…]/min/mg).

B1: GLO: gulono-γ-lactone oxidase, rat glo expressed from pET30a in E. coli Rosetta(DE3), His-Bind purified (protein, UniProt P10867 2-440, looked up)
L-gulonolactone oxidase: VHGYKGVQFQNWAKTYGCSPEVYYQPTSVEEVREVLALAREQKKKVKVVGGGHSPSDIACTDGFMIHMGKMNRVLQVDKEKKQITVEAGILLADLHPQLDEHGLAMSNLGAVSDVTVAGVIGSGTHNTGIKHGILATQVVALTLMTADGEVLECSESRNADVFQAARVHLGCLGIILTVTLQCVPQFHLQETSFPSTLKEVLDNLDSHLKRSEYFRFLWFPHTENVSIIYQDHTNKAPSSASNWFWDYAIGFYLLEFLLWTSTYLPCLVGWINRFFFWMLFNCKKESSNLSHKIFTYECRFKQHVQDWAIPREKTKEALLELKAMLEAHPKVVAHYPVEVRFTRGDDILLSPCFQRDSCYMNIIMYRPYGKDVPRLDYWLAYETIMKKFGGRPHWAKAHNCTQKDFEEMYPTFHKFCDIREKLDPTGMFLNSYLEKVFY
modifications: His tag
- Specific Activity (purified protein): 0.926 nmol/min/mg
